In article PMC7385124, “The molecular basis of thioalcohol production in human body odour” (Scientific Reports, 2020):

Legend:
[1] = tested on: CC(C)(CCO)SC[C@H](N)C(=O)O; test: purified protein, by the assay type; design: DTNB thiol release, A412, continuous steady-state Michaelis-Menten kinetics of C-S lyase; conditions: pH 7.8; 37.0 °C
Method: (§1) In vitro activity assays were performed using an Epoch2 (BioTek) plate reader. Reactions were measured in 96-well plate. A continuous assay, described previously[3] was used to measure 3M3SH. A 200 μL reaction contained […], variable amounts of substrate and 0.4 mM DTNB in 50 mM KPi and 200 mM NaCl, pH 7.8. […] Each reaction was incubated at 37 °C for 30 min. Release of the thiol 3M3SH was measured by reaction with DTNB to form 2-nitro-5-thiobenzoic acid (TNB) which is measured at A412 nm every minute. Background rate of DTNB decomposition was subtracted in each assay. Michaelis–Menten plots were derived from 6 to 8 substrate concentrations using Prism Version 5.01 (GraphPad) to calculate the Kcat and KM. Enzyme concentrations were assumed to be the concentration of PLP-bound enzyme with two active sites per enzyme. Velocity curves for all in vitro kinetics are shown in the supplementary information (Supplementary Information Figures S10–S12). Next, we cloned and overexpressed genes encoding a representative range of PatB-type enzymes, with two MetC proteins as controls (Fig. 2, denoted by coloured dots) and purified the proteins for biochemical analysis.

[2] = tested on: CCCC(C)(CCO)SC[C@H](N)C(=O)O; test: purified protein, by the assay type; design: DTNB thiol release, A412, continuous steady-state Michaelis-Menten kinetics of C-S lyase; conditions: pH 7.8; 37.0 °C
Method: as §1

[3] = target: Staphylococcus hominis PatB (cysteine-thiol lyase, PLP-dependent C-S lyase) (Staphylococcus hominis); test: crystal structure; ShPatB at 15 mg/mL in 20 mM Tris pH 8, 50 mM NaCl; hanging drops, 4% Tacsimate pH 6, 12% PEG 3,350, room temperature; without and with 20 mM L-cycloserine

Row | Substance | Km [1] | kcat [1] | kcat/Km [1] | Km [2] | kcat [2] | kcat/Km [2] | stoichiometry N [3]
1 | EcTnaA (Escherichia coli K-12) | 3300 µM | 0.0117 s⁻¹ | 3.33 M⁻¹ s⁻¹ | 2150 µM | 0.051 s⁻¹ | 23.7 M⁻¹ s⁻¹ | 
2 | Staphylococcus hominis PatB (cysteine-thiol lyase, PLP-dependent C-S lyase) (enzyme) |  |  |  |  |  |  | 2
